This note sets out measurements from patent US20230416394A1 (ELPISCIENCE SUZHOU BIOPHARMA, published 2023).

Assay [1] deals with T1, human TGFβ1 (human, UniProt P01137 279-390).
T1 construct: also called TGFβ peptide (TGFβ1); biotinylated TGFβ1
As to the kind of experiment: ELISA, blocking of TGFβRII-His binding to coated TGFβ1. The procedure: For blocking assay, TGFβ peptide (TGFβ1) was coated on microplates. A serial dilution of purified antibodies was incubated with recombinant TGFβRII-His protein (SinoBiological) for 1 h in TGFβ1-coated plates. After wash, the remaining TGFβRII-His was detected by anti-His-HRP conjugated secondary antibody. The values of absorbance at 450 nm were read on a microtiter plate reader (Molecular Devices Corp) for the quantification of TGFβRII-His binding to TGFβ1. All the tested anti-CD39/TGFβ Trap molecules (i.e. ES014-1, ES014-2, ES014-3, ES014-6) could effectively block human TGFβ1 binding to the TGFβ receptor TGFβRII (FIG. 26, Soluble TGFβ trap (i.e. TGFβRII) was used as control). IC 50 values of the anti-CD39/TGFβ Trap molecules were analyzed using GraphPad Prism.
For orientation: In an ELISA, binding on a coated surface is turned into a signal by an enzyme label.

For assay [2], the target named is T1, human TGFβ1. As to the kind of experiment: ELISA, coated human TGFβ1. As to the method:
To determine the binding ability and specificity of the anti-CD39/TGFβ Trap molecules, ELISA assays were conducted using human TGFβ1, human TGFβ2, human TGFβ3 as well as mouse TGFβ1. The tested antigens were coated on NUNC 96-well immunoplate at the concentration of 1 μg/ml. Binding with increasing concentrations of anti-CD39/TGFβ Trap molecules was measured with anti-human Fc antibody horseradish peroxidase conjugate diluted in PBT buffer, then developed with TMB substrate. Soluble TGFβ trap was used as control. As shown in FIGS. 25A-25C, the anti-CD39/TGFβ Trap molecules ES014-1 and ES014-2 bind to all three TGFβ homologues: human TGFβ1, TGFβ2 and TGFβ3. The binding assay results of the other tested anti-CD39/TGFβ Trap molecules (including ES014-3, ES014-4, ES014-5, ES014-6, ES014-7) were similar and not shown herein. Moreover, the anti-CD39/TGFβ Trap molecule ES014-1 binds to mouse TGFβ1 with similar affinity as for human TGFβ1 (FIG. 25D).

Assay [3] addresses T2, mouse CD39 (mouse, UniProt P55772 1-510).
T2 construct: whole, on cells; also called mCD39; CHOK1-mCD39
T2 sequence (looked up): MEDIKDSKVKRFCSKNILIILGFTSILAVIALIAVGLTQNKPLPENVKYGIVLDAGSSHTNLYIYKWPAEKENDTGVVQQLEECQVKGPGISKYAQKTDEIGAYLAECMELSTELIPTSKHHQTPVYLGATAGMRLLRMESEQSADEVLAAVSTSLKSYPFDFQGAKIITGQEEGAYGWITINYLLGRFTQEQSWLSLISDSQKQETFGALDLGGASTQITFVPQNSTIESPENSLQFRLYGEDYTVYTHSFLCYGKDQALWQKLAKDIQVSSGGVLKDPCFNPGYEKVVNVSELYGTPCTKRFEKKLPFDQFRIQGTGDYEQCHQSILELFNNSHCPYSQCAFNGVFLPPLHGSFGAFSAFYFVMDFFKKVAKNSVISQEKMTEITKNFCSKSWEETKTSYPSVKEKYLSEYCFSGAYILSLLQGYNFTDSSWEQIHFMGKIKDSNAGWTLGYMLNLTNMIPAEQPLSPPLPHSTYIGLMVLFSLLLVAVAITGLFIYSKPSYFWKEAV
As to the kind of experiment: FACS, CHOK1-mCD39 cells. The source says: FACS were used to determine binding of the antibodies to cell lines expressing CD39 naturally (SK-MEL-28) or recombinantly (CHOK1-hCD39, CHOK1-cynoCD39, and CHOK1-mCD39), or with cells lacking CD39 expression (CHOK1-blank) as a negative control.
CHOK1-hCD39, CHOK1-cCD39, CHOK1-mCD39 and CHOK1-blank cells were maintained in culture medium according to ATCC procedure. Cells were collected and re-suspended in blocking buffer at a density of 3×10⁶ cells/ml. […] The plates were washed with FACS buffer, and cells were re-suspended in 100 μL/well of PBS. Cells were then analyzed with FACSVerse™ and mean fluorescence intensity were determined. Full binding curves were generated on the CD39 expressing cells by testing a range of antibody concentrations. Apparent affinity was determined for each antibody using Prism software.
A general note: In flow cytometry, cells or beads pass a laser one at a time.

Assay [4] concerns the target T3, KW27-6 (human, UniProt P49961 1-510).
T3 construct: on transfected HEK-293F cells; also called human CD39 mutant KW27-6; not shown: C-terminal EGFP (vector pCMV3-GFPSpark) and any linker to it
T3 sequence: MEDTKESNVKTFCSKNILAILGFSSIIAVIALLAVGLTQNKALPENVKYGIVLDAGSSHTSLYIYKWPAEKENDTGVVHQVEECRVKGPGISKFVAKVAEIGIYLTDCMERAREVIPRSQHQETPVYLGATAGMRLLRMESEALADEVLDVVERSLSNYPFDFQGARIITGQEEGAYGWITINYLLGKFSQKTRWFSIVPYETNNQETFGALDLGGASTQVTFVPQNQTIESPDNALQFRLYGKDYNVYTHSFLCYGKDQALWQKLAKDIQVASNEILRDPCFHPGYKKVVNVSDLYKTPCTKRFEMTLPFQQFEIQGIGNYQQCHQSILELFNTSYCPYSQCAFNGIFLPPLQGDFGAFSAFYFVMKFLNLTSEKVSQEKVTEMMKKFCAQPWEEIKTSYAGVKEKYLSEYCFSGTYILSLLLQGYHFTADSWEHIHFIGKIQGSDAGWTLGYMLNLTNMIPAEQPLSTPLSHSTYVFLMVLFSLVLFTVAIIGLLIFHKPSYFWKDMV
As to the kind of experiment: FACS, HEK293F cells expressing mutant-EGFP. As to the method: Briefly, the human CD39 mutants were generated by gene synthesis and then cloned into an expression vector pCMV3-GFPSpark. The vectors containing the validated mutated sequences were prepared and transfected into HEK293F cells. Three days post transfection, the cells were collected to testing EGFP for transgene expression. A range of dosages of antibodies (start from 100 nM, 3-folds dilution, 11 points) were tested on the 20 generated mutants and stained by AlexFluor647 labelled anti-hIgG by FACS. Antibody binding was descripted as relative binding which is derived from AlexFluor647 intensity divided by GFP intensity.

T1 sequence (P01137 279-390 limits assumed): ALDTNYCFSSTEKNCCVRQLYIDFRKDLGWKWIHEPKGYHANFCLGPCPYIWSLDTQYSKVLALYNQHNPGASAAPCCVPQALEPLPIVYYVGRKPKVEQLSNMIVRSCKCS

B1: Soluble TGFβ trap (i.e. TGFβRII) (receptor, UniProt P37173 24-159, looked up)
chain: IPPHVQKSVNNDMIVTDNNGAVKFPQLCKFCDVRFSTCDNQKSCMSNCSITSICEKPQEVCVAVWRKNDENITLETVCHDPKLPYHDFILEDAASPKCIMKEKKKPGETFFMCSCSSDECNDNIIFSEEYNTSNPD
notes: construct not described; also called TGFβ trap control
Broadly, the IC50 is the concentration needed to halve the response being measured. Low values mean greater potency in that assay, high ones weaker potency in that assay. The EC50 is the midpoint of the concentration-response curve. Read a low EC50 as a more potent agent. In turn, B1 came in with an IC50 in assay [1] of 0.58 nM. Besides, a half-maximal effect in assay [2] (EC50) was put at 0.017 nM.

B2: 9-8B (antibody, V domains shown)
VH: QIQLVQSGPELKKPGETVKISCKASGYTFTHYGMNWVKQAPGKGLKWMGWINTYTGELTYADDFKGRFAFSLETSASTAYLQINNLKNEDTATYFCARRAYYRYDYVMDYWGQGTSVTVSS
VL: DIVMTQSQKFMSTSVGDRVSVTCKASHNVGTNVAWYQQKPGQSPKALIYSASYRYSGVPGRFTGSGSGTDFTLTISNVQSEDLAEYFCHQYNNYPYTFGGGTKLEIK
notes: also called Antibody 9-8B
As for B2, the binding result in assay [3] was “no binding (tested: 30 µg/ml)”; in assay [4], “no binding (tested: 100 nM)”.
